Assay results: the supplement of paper PMC6757056
± gives the standard deviation of the averaged measurements.

B1: library; a variant is named by its letters at N, in order (parent)
chain: GCUGUCACCGGUGUAUUACCCUAGUGGUCGACCGGUCUGAUGAGUCUNNNNNNAGACGAAACAGC

Experiments:
hypoxanthine [1] = variants of: B1; assay: normalized RNA/DNA level with ligand (relative to sTRSVctl = 100) (log10 (% of sTRSVctl)); ligand: hypoxanthine (xanthine aptamer); higher = less ribozyme self-cleavage, higher mRNA level; details: ligand concentration (+) RNA-Seq: 5 mM, HEK293T, reporter: mCherry (pCS4076), ligand present: yes
Outline: (§1)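 Library plasmids encoding reporter-linked ribozyme switches (mCherry, or eGFP for some folinic acid experiments) were transfected into HEK293T at 4 µg per 6-well well. Ligand, when used, was added 1 h before transfection. Total RNA was extracted with EDTA 72 h later, then reverse-transcribed, amplified, barcoded and sequenced. RNA level was RNA reads over DNA reads, divided by a spiked-in non-cleaving control (or the top 25 sequences), ×100, log10; only sequences with ≥100 DNA reads were kept.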

hypoxanthine [2] = variants of: B1; assay: normalized RNA/DNA level without ligand (relative to sTRSVctl = 100) (log10 (% of sTRSVctl)); ligand: hypoxanthine (xanthine aptamer); higher = less ribozyme self-cleavage, higher mRNA level; details: HEK293T, reporter: mCherry (pCS4076), ligand present: no
Outline: as §1

Variant	normalized RNA/DNA level with ligand (log10) (hypoxanthine [1])	normalized RNA/DNA level without ligand (log10) (hypoxanthine [2])
GCUGUCACCGGUGUAUUACCCUAGUGGUCGACCGGUCUGAUGAGUCUACUCAAAGACGAAACAGC	1.92 ± 0.073	1.748 ± 0.0042
GCUGUCACCGGUGUAUUACCCUAGUGGUCGACCGGUCUGAUGAGUCUCCUAAUAGACGAAACAGC	1.94 ± 0.12	1.86 ± 0.1
GCUGUCACCGGUGUAUUACCCUAGUGGUCGACCGGUCUGAUGAGUCUCCUAAGAGACGAAACAGC	1.91 ± 0.05	1.66 ± 0.013
GCUGUCACCGGUGUAUUACCCUAGUGGUCGACCGGUCUGAUGAGUCUCCUAACAGACGAAACAGC	1.93 ± 0.042	1.825 ± 0.0078
GCUGUCACCGGUGUAUUACCCUAGUGGUCGACCGGUCUGAUGAGUCUUCUACCAGACGAAACAGC	1.96 ± 0.029	1.913 ± 0.0037
GCUGUCACCGGUGUAUUACCCUAGUGGUCGACCGGUCUGAUGAGUCUUCUACAAGACGAAACAGC	1.94 ± 0.057	1.846 ± 0.017
GCUGUCACCGGUGUAUUACCCUAGUGGUCGACCGGUCUGAUGAGUCUUCUACGAGACGAAACAGC	1.9 ± 0.07	1.733 ± 0.011
GCUGUCACCGGUGUAUUACCCUAGUGGUCGACCGGUCUGAUGAGUCUUCUACUAGACGAAACAGC	1.97 ± 0.067	1.917 ± 0.014
GCUGUCACCGGUGUAUUACCCUAGUGGUCGACCGGUCUGAUGAGUCUACUAUCAGACGAAACAGC	1.98 ± 0.03	1.95 ± 0.046
GCUGUCACCGGUGUAUUACCCUAGUGGUCGACCGGUCUGAUGAGUCUACUAUGAGACGAAACAGC	1.89 ± 0.021	1.48 ± 0.015
GCUGUCACCGGUGUAUUACCCUAGUGGUCGACCGGUCUGAUGAGUCUACUAUUAGACGAAACAGC	1.928 ± 0.012	1.82 ± 0.03
GCUGUCACCGGUGUAUUACCCUAGUGGUCGACCGGUCUGAUGAGUCUACUAGCAGACGAAACAGC	1.881 ± 0.0075	1.79 ± 0.075
GCUGUCACCGGUGUAUUACCCUAGUGGUCGACCGGUCUGAUGAGUCUACUAGUAGACGAAACAGC	1.88 ± 0.052	1.71 ± 0.07
GCUGUCACCGGUGUAUUACCCUAGUGGUCGACCGGUCUGAUGAGUCUGCUAUCAGACGAAACAGC	1.966 ± 0.016	1.84 ± 0.058
GCUGUCACCGGUGUAUUACCCUAGUGGUCGACCGGUCUGAUGAGUCUGCUAUAAGACGAAACAGC	1.93 ± 0.03	1.89 ± 0.034
GCUGUCACCGGUGUAUUACCCUAGUGGUCGACCGGUCUGAUGAGUCUCCUAUUAGACGAAACAGC	1.95 ± 0.063	1.9 ± 0.039
GCUGUCACCGGUGUAUUACCCUAGUGGUCGACCGGUCUGAUGAGUCUCCUAUCAGACGAAACAGC	2.03 ± 0.028	2.04 ± 0.03
GCUGUCACCGGUGUAUUACCCUAGUGGUCGACCGGUCUGAUGAGUCUCCUAUGAGACGAAACAGC	1.92 ± 0.13	1.86 ± 0.083
GCUGUCACCGGUGUAUUACCCUAGUGGUCGACCGGUCUGAUGAGUCUGCUACAAGACGAAACAGC	1.95 ± 0.02	1.85 ± 0.025
GCUGUCACCGGUGUAUUACCCUAGUGGUCGACCGGUCUGAUGAGUCUGCUACUAGACGAAACAGC	1.95 ± 0.059	1.89 ± 0.026
GCUGUCACCGGUGUAUUACCCUAGUGGUCGACCGGUCUGAUGAGUCUUCUAUAAGACGAAACAGC	1.893 ± 0.016	1.858 ± 0.013

Variant	normalized RNA/DNA level with ligand (log10) (hypoxanthine [1])	normalized RNA/DNA level without ligand (log10) (hypoxanthine [2])
GCUGUCACCGGUGUAUUACCCUAGUGGUCGACCGGUCUGAUGAGUCUUCUAUUAGACGAAACAGC	1.93 ± 0.057	1.86 ± 0.023
GCUGUCACCGGUGUAUUACCCUAGUGGUCGACCGGUCUGAUGAGUCUGCUAGCAGACGAAACAGC	1.89 ± 0.1	1.79 ± 0.079
GCUGUCACCGGUGUAUUACCCUAGUGGUCGACCGGUCUGAUGAGUCUGCUAGAAGACGAAACAGC	1.92 ± 0.031	1.71 ± 0.029
GCUGUCACCGGUGUAUUACCCUAGUGGUCGACCGGUCUGAUGAGUCUGCUAGGAGACGAAACAGC	1.83 ± 0.039	1.48 ± 0.02
GCUGUCACCGGUGUAUUACCCUAGUGGUCGACCGGUCUGAUGAGUCUGCUAGUAGACGAAACAGC	1.92 ± 0.11	1.722 ± 0.0072
GCUGUCACCGGUGUAUUACCCUAGUGGUCGACCGGUCUGAUGAGUCUCCUAGGAGACGAAACAGC	1.86 ± 0.055	1.77 ± 0.046
GCUGUCACCGGUGUAUUACCCUAGUGGUCGACCGGUCUGAUGAGUCUCCUAGCAGACGAAACAGC	1.91 ± 0.08	1.842 ± 0.0069
GCUGUCACCGGUGUAUUACCCUAGUGGUCGACCGGUCUGAUGAGUCUCCUAGAAGACGAAACAGC	1.962 ± 0.016	1.84 ± 0.057
GCUGUCACCGGUGUAUUACCCUAGUGGUCGACCGGUCUGAUGAGUCUCCUAGUAGACGAAACAGC	1.919 ± 0.0097	1.872 ± 0.013
GCUGUCACCGGUGUAUUACCCUAGUGGUCGACCGGUCUGAUGAGUCUUCUCAAAGACGAAACAGC	1.92 ± 0.055	1.679 ± 0.0047
GCUGUCACCGGUGUAUUACCCUAGUGGUCGACCGGUCUGAUGAGUCUUCUAGUAGACGAAACAGC	1.99 ± 0.051	1.68 ± 0.019
GCUGUCACCGGUGUAUUACCCUAGUGGUCGACCGGUCUGAUGAGUCUUCUAGGAGACGAAACAGC	1.96 ± 0.072	1.92 ± 0.089
GCUGUCACCGGUGUAUUACCCUAGUGGUCGACCGGUCUGAUGAGUCUGCUAAAAGACGAAACAGC	1.95 ± 0.043	1.77 ± 0.023
GCUGUCACCGGUGUAUUACCCUAGUGGUCGACCGGUCUGAUGAGUCUUCUAACAGACGAAACAGC	1.9378 ± 0.00086	1.85 ± 0.013
GCUGUCACCGGUGUAUUACCCUAGUGGUCGACCGGUCUGAUGAGUCUCCUACGAGACGAAACAGC	1.94 ± 0.073	1.9 ± 0.041
GCUGUCACCGGUGUAUUACCCUAGUGGUCGACCGGUCUGAUGAGUCUCCUACUAGACGAAACAGC	1.98 ± 0.13	1.96 ± 0.021
GCUGUCACCGGUGUAUUACCCUAGUGGUCGACCGGUCUGAUGAGUCUCCUACCAGACGAAACAGC	1.937 ± 0.0065	1.86 ± 0.049
GCUGUCACCGGUGUAUUACCCUAGUGGUCGACCGGUCUGAUGAGUCUCCUCACAGACGAAACAGC	1.99 ± 0.027	2.07 ± 0.14
GCUGUCACCGGUGUAUUACCCUAGUGGUCGACCGGUCUGAUGAGUCUCCUCAAAGACGAAACAGC	1.929 ± 0.0046	1.84 ± 0.025
GCUGUCACCGGUGUAUUACCCUAGUGGUCGACCGGUCUGAUGAGUCUACUACCAGACGAAACAGC	2 ± 0.03	1.9024 ± 0.00086
GCUGUCACCGGUGUAUUACCCUAGUGGUCGACCGGUCUGAUGAGUCUACUACAAGACGAAACAGC	1.92 ± 0.0088	1.841 ± 0.014
